Values joined by “and” are separate entries in the source; they are usually repeats but may differ in a detail not shown here. Identical values can stand only once.
Columns and labels:
[1] = AlbuBChE serum pharmacokinetics after single IM dose (ELISA); conditions: for tmax: group value
Method: The study included a total of 11 naïve, adult male cynomolgus monkeys divided into four dose groups: • a control group of two cynomologus monkeys that only received a single IV dose of cocaine; • three dose groups that were treated with a single IM dose of AlbuBChE at 0.2, 1 or 5 mg/kg. Three naïve, adult male cynomolgus monkeys were used in each dose group. Following AlbuBChE treatment, a 1 mg/kg IV dose of cocaine was administered at 2, 48, 96, 120, and 240 hours after AlbuBChE dose administration.
A single intramuscular (IM) administration of AlbuBChE was administered on study day 1 and blood was collected at the time points outlined in Table 2. Approximately 0.5 mL of whole blood was collected from the femoral vein into serum separate tubes (SST).
Blocking is done with 2% Casein in 1×PBS, 200 μL/well, 2 hours at room temperature. After washing, 100 μL of diluted serum samples are added to the plates along with standards. Standards are generated through 3.64 fold, serial dilution of AlbuBChE from 2000 to 3.1 ng/mL. Serum samples and standards are maintained at 10% serum by dilution with buffer containing pooled cynomolgus monkey serum. A wash step precedes detection with 100 μL of anti-HSA mAb-6502-HRP at 0.04 μg/mL for 1 hour. Wells are washed again, prior to developing with 100 μl of TMB substrate. After 15 minutes, the reaction is terminated with 100 μL/well of 1N H2SO4 and read on SpectraMax plate reader at 450/570 nm. Values for unknown serum samples are calculated by interpolation of standard curve generated by 4-parameter fit of AlbuBChE standards. The limit of quantitation in cynomolgus serum was 21.1 ng/mL.
AlbuBChE pharmacokinetic parameter values were determined using serum concentration-time profiles for individual animals. The computer software WinNonlin Professional (Version 4.0.1 Pharsight Corporation, USA) was used. Specifically the model for non-compartmental analysis with extravascular input was applied. If there were fewer than 3 data points in the terminal phase of the serum concentration curve, a terminal phase half-life and PK parameters derived from the half-life were not calculated for that profile. Parameters analyzed include tmax, Cmax, t1/2, AUC(0-t) and AUC(0-∞) were calculated.

[2] = Animal observations in PK/PD study

AlbuBChE
AlbuBChE serum concentration, individual animals ([1]; 1.0 mg/kg IM, 36 hr post dose): 373.4 ng/mL and 471.7 ng/mL and 348.2 ng/mL
Mean AlbuBChE serum concentration ([1]; 1.0 mg/kg IM, 36 hr post dose): 398 ng/mL
AlbuBChE serum concentration, individual animals ([1]; 1.0 mg/kg IM, 48 hr post dose): 289.4 ng/mL and 362.7 ng/mL and 264.4 ng/mL
Mean AlbuBChE serum concentration ([1]; 1.0 mg/kg IM, 48 hr post dose): 306 ng/mL
AlbuBChE serum concentration, individual animals ([1]; 1.0 mg/kg IM, 72 hr post dose): 122.1 ng/mL and 235.0 ng/mL and 133.0 ng/mL
Mean AlbuBChE serum concentration ([1]; 1.0 mg/kg IM, 72 hr post dose): 163 ng/mL
AlbuBChE serum concentration, individual animals ([1]; 1.0 mg/kg IM, 96 hr post dose): 87.0 ng/mL and 131.7 ng/mL and 75.3 ng/mL
Mean AlbuBChE serum concentration ([1]; 1.0 mg/kg IM, 96 hr post dose): 98.0 ng/mL
AlbuBChE serum concentration, individual animals ([1]; 1.0 mg/kg IM, 128 hr post dose): 36.2 ng/mL and 72.0 ng/mL and 38.1 ng/mL
Mean AlbuBChE serum concentration ([1]; 1.0 mg/kg IM, 128 hr post dose): 48.8 ng/mL
AlbuBChE serum concentration, individual animals ([1]; 1.0 mg/kg IM, 144 hr post dose): 27.4 ng/mL and 47.7 ng/mL and 31.5 ng/mL
Mean AlbuBChE serum concentration ([1]; 1.0 mg/kg IM, 144 hr post dose): 35.5 ng/mL
AlbuBChE serum concentration, individual animals ([1]; 1.0 mg/kg IM, 168 hr post dose): <LLOQ (2×) and 39.5 ng/mL
Mean AlbuBChE serum concentration ([1]; 1.0 mg/kg IM, 168 hr post dose): <LLOQ
AlbuBChE serum concentration, individual animals ([1]; 1.0 mg/kg IM, 216 hr post dose): <LLOQ
Mean AlbuBChE serum concentration ([1]; 1.0 mg/kg IM, 216 hr post dose): <LLOQ
AlbuBChE serum concentration, individual animals ([1]; 1.0 mg/kg IM, 264 hr post dose): <LLOQ
Mean AlbuBChE serum concentration ([1]; 1.0 mg/kg IM, 264 hr post dose): <LLOQ
tmax ([1]; 1.0 mg/kg IM): 3 h
AUC % Extrap, individual animals ([1]; 5 mg/kg IM): 1.86% and 0.938% and 1.85%
AUC(0-t), individual animals ([1]; 5 mg/kg IM): 201.754 µg·h/mL and 437.848 µg·h/mL and 235.983 µg·h/mL
AUC(0-∞), individual animals ([1]; 5 mg/kg IM): 205.584 µg·h/mL and 441.992 µg·h/mL and 240.442 µg·h/mL
Cmax, individual animals ([1]; 5 mg/kg IM): 6016 ng/mL and 17687 ng/mL and 6530 ng/mL
Tmax, individual animals ([1]; 5 mg/kg IM): 6 h
t½, individual animals ([1]; 5 mg/kg IM): 63.4 h and 56.4 h and 65.5 h
Dose Normalized AUC(0-∞) ([1]; 5.0 mg/kg IM): 59201
Dose Normalized Cmax ([1]; 5.0 mg/kg IM): 2016
Mean AUC % Extrap ([1]; 5.0 mg/kg IM): 1.55%
Mean AUC(0-t) ([1]; 5.0 mg/kg IM): 291.862 µg·h/mL
Mean AUC(0-∞) ([1]; 5.0 mg/kg IM): 296.006 µg·h/mL
Mean Cmax ([1]; 5.0 mg/kg IM): 10078 ng/mL
Mean t½ ([1]; 5.0 mg/kg IM): 62 h and 61.8 h
AlbuBChE serum concentration, individual animals ([1]; 5.0 mg/kg IM, 1 hr post dose): 2580.0 ng/mL and 6570.9 ng/mL and 3821.0 ng/mL
Mean AlbuBChE serum concentration ([1]; 5.0 mg/kg IM, 1 hr post dose): 4324 ng/mL
AlbuBChE serum concentration, individual animals ([1]; 5.0 mg/kg IM, 3 hr post dose): 4899.0 ng/mL and 12683.9 ng/mL and 6024.0 ng/mL
Mean AlbuBChE serum concentration ([1]; 5.0 mg/kg IM, 3 hr post dose): 7869 ng/mL
AlbuBChE serum concentration, individual animals ([1]; 5.0 mg/kg IM, 6 hr post dose): 6016.0 ng/mL and 17686.8 ng/mL and 6530.3 ng/mL
Mean AlbuBChE serum concentration ([1]; 5.0 mg/kg IM, 6 hr post dose): 10078 ng/mL
AlbuBChE serum concentration, individual animals ([1]; 5.0 mg/kg IM, 12 hr post dose): 4178.0 ng/mL and 11105.8 ng/mL and 5091.0 ng/mL
Mean AlbuBChE serum concentration ([1]; 5.0 mg/kg IM, 12 hr post dose): 6792 ng/mL
AlbuBChE serum concentration, individual animals ([1]; 5.0 mg/kg IM, 24 hr post dose): 2836.0 ng/mL and 5034.0 ng/mL and 3325.0 ng/mL
Mean AlbuBChE serum concentration ([1]; 5.0 mg/kg IM, 24 hr post dose): 3732 ng/mL
AlbuBChE serum concentration, individual animals ([1]; 5.0 mg/kg IM, 36 hr post dose): 1572.0 ng/mL and 2929.0 ng/mL and 1901.0 ng/mL
Mean AlbuBChE serum concentration ([1]; 5.0 mg/kg IM, 36 hr post dose): 2134 ng/mL
AlbuBChE serum concentration, individual animals ([1]; 5.0 mg/kg IM, 48 hr post dose): 1329.7 ng/mL and 2644.4 ng/mL and 1604.9 ng/mL
Mean AlbuBChE serum concentration ([1]; 5.0 mg/kg IM, 48 hr post dose): 1860 ng/mL
AlbuBChE serum concentration, individual animals ([1]; 5.0 mg/kg IM, 72 hr post dose): 637.7 ng/mL and 1190.8 ng/mL and 723.6 ng/mL
Mean AlbuBChE serum concentration ([1]; 5.0 mg/kg IM, 72 hr post dose): 851 ng/mL
AlbuBChE serum concentration, individual animals ([1]; 5.0 mg/kg IM, 96 hr post dose): 415.1 ng/mL and 732.6 ng/mL and 454.7 ng/mL
Mean AlbuBChE serum concentration ([1]; 5.0 mg/kg IM, 96 hr post dose): 534.1 ng/mL and 534 ng/mL
AlbuBChE serum concentration, individual animals ([1]; 5.0 mg/kg IM, 128 hr post dose): 217.2 ng/mL and 325.9 ng/mL and 224.3 ng/mL
Mean AlbuBChE serum concentration ([1]; 5.0 mg/kg IM, 128 hr post dose): 255.8 ng/mL and 256 ng/mL
AlbuBChE serum concentration, individual animals ([1]; 5.0 mg/kg IM, 144 hr post dose): 158.4 ng/mL and 254.7 ng/mL and 163.3 ng/mL
Mean AlbuBChE serum concentration ([1]; 5.0 mg/kg IM, 144 hr post dose): 192.1 ng/mL and 192 ng/mL
AlbuBChE serum concentration, individual animals ([1]; 5.0 mg/kg IM, 168 hr post dose): 118.9 ng/mL and 165.5 ng/mL and 130.4 ng/mL
Mean AlbuBChE serum concentration ([1]; 5.0 mg/kg IM, 168 hr post dose): 138.3 ng/mL and 138 ng/mL
AlbuBChE serum concentration, individual animals ([1]; 5.0 mg/kg IM, 216 hr post dose): 73.7 ng/mL and 91.6 ng/mL and 79.4 ng/mL
Mean AlbuBChE serum concentration ([1]; 5.0 mg/kg IM, 216 hr post dose): 81.6 ng/mL
AlbuBChE serum concentration, individual animals ([1]; 5.0 mg/kg IM, 264 hr post dose): 41.9 ng/mL and 50.9 ng/mL and 47.2 ng/mL
Mean AlbuBChE serum concentration ([1]; 5.0 mg/kg IM, 264 hr post dose): 46.7 ng/mL
tmax ([1]; 5.0 mg/kg IM): 6 h
Cocaine-related observations (hyperactivity, increased respiratory rate with abdominal breathing) ([2]; pre-treatment 0.2 to 5 mg/kg, cocaine 1 mg/kg): not observed for five days
Clinical or cageside observations associated with AlbuBChE ([2]; single IM 0.2, 1 or 5 mg/kg): no clinical or cageside observations
Deaths during the study ([2]; single IM 0.2, 1 or 5 mg/kg): no deaths
Tolerability ([2]; single IM dose of 0.2, 1 or 5 mg/kg): well tolerated

Reference: US8541373B2, “BChE albumin fusions for the treatment of cocaine abuse” (priority 2009, dated 2013)
